Measurements: patent US6040149A, “Assay for identifying agents which act on the ceramide-activated protein kinase, kinase suppressor of ras, and methods of using said agents” (priority 1997, dated 2000)

T1: KSR (Mus musculus, UniProt Q61097)
T1 sequence (Q61097 1-873): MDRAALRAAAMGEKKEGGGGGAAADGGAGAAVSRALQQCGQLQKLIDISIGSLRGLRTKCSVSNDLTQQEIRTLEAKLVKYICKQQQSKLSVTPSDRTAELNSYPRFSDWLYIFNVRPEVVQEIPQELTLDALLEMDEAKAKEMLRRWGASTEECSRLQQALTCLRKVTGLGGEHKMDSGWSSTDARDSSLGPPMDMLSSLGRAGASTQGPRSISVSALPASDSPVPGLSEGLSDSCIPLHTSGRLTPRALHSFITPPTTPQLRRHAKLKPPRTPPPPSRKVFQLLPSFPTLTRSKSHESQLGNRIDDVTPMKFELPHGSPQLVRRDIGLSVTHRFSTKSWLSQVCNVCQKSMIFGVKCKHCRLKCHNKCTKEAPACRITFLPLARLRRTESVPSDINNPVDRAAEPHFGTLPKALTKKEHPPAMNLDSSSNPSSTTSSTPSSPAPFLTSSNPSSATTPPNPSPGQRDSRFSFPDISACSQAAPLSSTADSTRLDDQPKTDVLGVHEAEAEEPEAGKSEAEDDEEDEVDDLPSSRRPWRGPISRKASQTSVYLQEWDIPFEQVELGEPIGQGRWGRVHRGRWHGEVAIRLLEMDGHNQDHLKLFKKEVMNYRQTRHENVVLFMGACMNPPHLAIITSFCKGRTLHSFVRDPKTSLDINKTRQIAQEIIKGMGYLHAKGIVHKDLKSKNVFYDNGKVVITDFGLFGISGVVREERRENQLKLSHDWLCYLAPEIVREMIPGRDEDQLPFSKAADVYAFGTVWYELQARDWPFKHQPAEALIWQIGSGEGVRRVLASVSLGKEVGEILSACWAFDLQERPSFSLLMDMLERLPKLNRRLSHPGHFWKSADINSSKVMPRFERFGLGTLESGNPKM


Columns and labels:
Raf-1 [1] = test: Raf-1 activity after co-expression with KSR in COS-7 cells; format: cell-based, human (Raf-1 expressed in COS-7 cells)
Procedure: Some studies used untagged KSR (n=4) and yielded identical results. At 60 hours post-transfection, cells were lysed with RIPA buffer (NP-40 buffer containing 0.1% SDS and 0.1% deoxy cholate). […] […]. The samples were boiled for 5 min, resolved with SDS-PAGE (7.5%) and autoradiographed.
[…]. After 30 min, the reaction was stopped by addition of Laemmli sample buffer and phosphorylated MBP were resolved by 15% SDS-PAGE, prior to autoradiography.
; a kind gift of Dr. Natalie Ahn) or 1.25 μg recombinant human MEK1 (Santa Cruz), 0.625 μg recombinant human ERK1 (UBI) and myelin basic protein (MBP). After 20-30 min, the reaction was stopped by addition of SDS sample buffer. […]

Raf-1 [2] = test: Activation of Raf-1 by KSR in vitro (MEK1 phosphorylation)
KSR = molecular target: T1, KSR; test: KSR autophosphorylation after treatment of COS-7 cells expressing KSR; format: cell-based, mouse (KSR expressed in COS-7 cells); conditions: COS-7 cells, preliminary
Procedure: FIG. 23A--COS-7 cells were transfected as in FIG. 22A and placed in serum-free medium. After 4 hours, cells were stimulated for 10 min with the ceramide analog, C2-ceramide (Biomol), at the concentrations indicated. Cells were lysed with NP-40 lysis buffer, and Flag-tagged KSR (0.8 mg protein for each point) was immunoprecipitated and assayed for autophosphorylation activity as described in Experimental Procedures. The autoradiogram was exposed for 1 hour. KSR is expressed at similar levels in each sample as monitored by Western blot (data not shown). Data represent one of three similar experiments.
COS-7 cells expressing Flag-tagged KSR were stimulated with 10 nM TNFα for the times indicated and lysed with NP-40 buffer as in FIG. 2A. […] The autoradiogram was exposed for 1 hour. Data represent one of three similar experiments.
KSR was immunoprecipitated as above from 0.8 mg NP-40 lysate protein with 40 μl agarose-conjugated anti-Flag antibody at 4° C. for 4 hrs or overnight. […] The reaction was stopped by addition of Laemmli sample buffer. Samples were resolved by 7.5% sodium dodecyl sulfate-polyacrylamide gel electrophoresis (SDS-PAGE) and autoradiographed.

Row | Molecule | Raf-1 activation in COS-7 cells co-expressing KSR (Raf-1 [1]) | direct effect on MEK or ERK (Raf-1 [2]) | activation of KSR/CAP kinase (KSR)
1 | KSR: mouse kinase suppressor of ras, Flag-tagged (protein, UniProt Q61097 1-873, looked up, Flag tag, mouse kinase suppressor of ras, Flag-tagged) Kinase suppressor of Ras 1: MDRAALRAAAMGEKKEGGGGGAAADGGAGAAVSRALQQCGQLQKLIDISIGSLRGLRTKCSVSNDLTQQEIRTLEAKLVKYICKQQQSKLSVTPSDRTAELNSYPRFSDWLYIFNVRPEVVQEIPQELTLDALLEMDEAKAKEMLRRWGASTEECSRLQQALTCLRKVTGLGGEHKMDSGWSSTDARDSSLGPPMDMLSSLGRAGASTQGPRSISVSALPASDSPVPGLSEGLSDSCIPLHTSGRLTPRALHSFITPPTTPQLRRHAKLKPPRTPPPPSRKVFQLLPSFPTLTRSKSHESQLGNRIDDVTPMKFELPHGSPQLVRRDIGLSVTHRFSTKSWLSQVCNVCQKSMIFGVKCKHCRLKCHNKCTKEAPACRITFLPLARLRRTESVPSDINNPVDRAAEPHFGTLPKALTKKEHPPAMNLDSSSNPSSTTSSTPSSPAPFLTSSNPSSATTPPNPSPGQRDSRFSFPDISACSQAAPLSSTADSTRLDDQPKTDVLGVHEAEAEEPEAGKSEAEDDEEDEVDDLPSSRRPWRGPISRKASQTSVYLQEWDIPFEQVELGEPIGQGRWGRVHRGRWHGEVAIRLLEMDGHNQDHLKLFKKEVMNYRQTRHENVVLFMGACMNPPHLAIITSFCKGRTLHSFVRDPKTSLDINKTRQIAQEIIKGMGYLHAKGIVHKDLKSKNVFYDNGKVVITDFGLFGISGVVREERRENQLKLSHDWLCYLAPEIVREMIPGRDEDQLPFSKAADVYAFGTVWYELQARDWPFKHQPAEALIWQIGSGEGVRRVLASVSLGKEVGEILSACWAFDLQERPSFSLLMDMLERLPKLNRRLSHPGHFWKSADINSSKVMPRFERFGLGTLESGNPKM | marked increase in Raf-dependent MEK1 phosphorylation | no direct effect | –
2 | EGF: EGF (protein, UniProt P01133 23-1207, looked up, Pro-epidermal growth factor) Pro-epidermal growth factor: PQHWSCPEGTLAGNGNSTCVGPAPFLIFSHGNSIFRIDTEGTNYEQLVVDAGVSVIMDFHYNEKRIYWVDLERQLLQRVFLNGSRQERVCNIEKNVSGMAINWINEEVIWSNQQEGIITVTDMKGNNSHILLSALKYPANVAVDPVERFIFWSSEVAGSLYRADLDGVGVKALLETSEKITAVSLDVLDKRLFWIQYNREGSNSLICSCDYDGGSVHISKHPTQHNLFAMSLFGDRIFYSTWKMKTIWIANKHTGKDMVRINLHSSFVPLGELKVVHPLAQPKAEDDTWEPEQKLCKLRKGNCSSTVCGQDLQSHLCMCAEGYALSRDRKYCEDVNECAFWNHGCTLGCKNTPGSYYCTCPVGFVLLPDGKRCHQLVSCPRNVSECSHDCVLTSEGPLCFCPEGSVLERDGKTCSGCSSPDNGGCSQLCVPLSPVSWECDCFPGYDLQLDEKSCAASGPQPFLLFANSQDIRHMHFDGTDYGTLLSQQMGMVYALDHDPVENKIYFAHTALKWIERANMDGSQRERLIEEGVDVPEGLAVDWIGRRFYWTDRGKSLIGRSDLNGKRSKIITKENISQPRGIAVHPMAKRLFWTDTGINPRIESSSLQGLGRLVIASSDLIWPSGITIDFLTDKLYWCDAKQSVIEMANLDGSKRRRLTQNDVGHPFAVAVFEDYVWFSDWAMPSVMRVNKRTGKDRVRLQGSMLKPSSLVVVHPLAKPGADPCLYQNGGCEHICKKRLGTAWCSCREGFMKASDGKTCLALDGHQLLAGGEVDLKNQVTPLDILSKTRVSEDNITESQHMLVAEIMVSDQDDCAPVGCSMYARCISEGEDATCQCLKGFAGDGKLCSDIDECEMGVPVCPPASSKCINTEGGYVCRCSEGYQGDGIHCLDIDECQLGEHSCGENASCTNTEGGYTCMCAGRLSEPGLICPDSTPPPHLREDDHHYSVRNSDSECPLSHDGYCLHDGVCMYIEALDKYACNCVVGYIGERCQYRDLKWWELRHAGHGQQQKVIVVAVCVVVLVMLLLLSLWGAHYYRTQKLLSKNPKNPYEESSRDVRSRRPADTEDGMSSCPQPWFVVIKEHQDLKNGGQPVAGEDGQAADGSMQPTSWRQEPQLCGMGTEQGCWIPVSSDKGSCPQVMERSFHMPSYGTQTLEGGVEKPHSLLSANPLWQQRALDPPHQMELTQ | – | – | does not activate KSR/CAP kinase
